Experiments:
[1] = target: the molecule itself; assay: gel filtration and in vitro cross-linking of the purified domain
gel filtration = target: the molecule itself; assay: gel filtration

Row | Protein | binding result [1] | binding result (gel filtration)
1 | isolated coiled coil domain of PML (other, Expressed in BL21 as a GST fusion and freed by site-specific cleavage; also called CC; CC domain of PML) SELKCDISAEIQQRQEELDAMTQALQALQEQDSAEGAVHAQMHAAVGQLGRARAETEELIRERVRQVVAHVRAQERELLEAVDARYQRDYEEMASRLGRLDAVLQRIRTGSALVQRMKCYASDQEVLDMHGFLRQALCRLR | binds | 
2 | AML1-ETO (other, UniProt Q01196 1-177, looked up, The plasmid list names pcDNA3-myc-AML1-ETO; Also made in bacteria as an MBP fusion, MBP removed by factor Xa; also called myc-AML1-ETO) MRIPVDASTSRRFTPPSTALSPGKMSEALPLGAPDAGAALAGKLRSGDRSMVEVLADHPGELVRTDSPNFLCSVLPTHWRCNKTLPIAFKVVALGDVPDGTLVTVMAGNDENYSAELRNATAAMKNQVARFNDLRFVGRSGRGKSFTLTITVFTNPPQVATYHRAIKITVDGPREPRDRTEKHSTMPDSPVDVKTQSRLTPPTMPPPPTTQGAPRTSSFTPTTLTNGTSHSPTALNGAPSPPNGFSNGPSSSSSSSLANQQLPPACGARQLSKLKRFLTTLQQFGNDISPEIGERVRTLVLGLVNSTLTIEEFHSKLQEATNFPLRPFVIPFLKANLPLLQRELLHCARLAKQNPAQYLAQHEQLLLDASTTSPVDSSELLLDVNENGKRRTPDRTKENGFDREPLHSEHPSKRPCTISPGQRYSPNNGLSYQPNGLPHPTPPPPQHYRLDDMAIAHHYRDSYRHPSHRDLRDRNRPMGLHGTRQEEMIDHRLTDREWAEEWKHLDHLLNCIMDMVEKTRRSLTVLRRCQEADREELNYWIRRYSDAEDLKKGGGSSSSHSRQQSPVNPDPVALDAHREFLHRPASGYVPEEIWKKAEEAVNEVKRQAMTELQKAVSEAERKAHDMITTERAKMERTVAEAKRQAAEDALAVINQQEDSSESCWNCGRKASETCSGCNTARYCGSFCQHKDWEKHHHICGQTLQAQQQGDTPAVSSSVTPNSGAGSPMDTPPAATPRSTTPGTPSTIETTPR |  | binds

Source: patent US20030207791A1 (published 2003)
